Results: patent publication US20250340652A1 (CHENGDU DI AO PHARMACEUTICAL GROUP, published 2025)

B1: B156 (antibody, human IgG4, kappa)
heavy: not shown
light: DIQLTQSPSSLSASIGDRVTITCRASQGISSFLAWYQQKPGKAPQLLIYAASTLQSGVPSRFSGSGSGTEFTLTISSLQPEDFATYYCQQFKIYPLTFGGGTKVEVKRTVAAPSVFIFPPSDEQLKSGTASVVCLLNNFYPREAKVQWKVDNALQSGNSQESVTEQDSKDSTYSLSSTLTLSKADYEKHKVYACEVTHQGLSSPVTKSFNRGEC
notes: also called P59397
B2: B156 (IgG4SP) (antibody)
heavy: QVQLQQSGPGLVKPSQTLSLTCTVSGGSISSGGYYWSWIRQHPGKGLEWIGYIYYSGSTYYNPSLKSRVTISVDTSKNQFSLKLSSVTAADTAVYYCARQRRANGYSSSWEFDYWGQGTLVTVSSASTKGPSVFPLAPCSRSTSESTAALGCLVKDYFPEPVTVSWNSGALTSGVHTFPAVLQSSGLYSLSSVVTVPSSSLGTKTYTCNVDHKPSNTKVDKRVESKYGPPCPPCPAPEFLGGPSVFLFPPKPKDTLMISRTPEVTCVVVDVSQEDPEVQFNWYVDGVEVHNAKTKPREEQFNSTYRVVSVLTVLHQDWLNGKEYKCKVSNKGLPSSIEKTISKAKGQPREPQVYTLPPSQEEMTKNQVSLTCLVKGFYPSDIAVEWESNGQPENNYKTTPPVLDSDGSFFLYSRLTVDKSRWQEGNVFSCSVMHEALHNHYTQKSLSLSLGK
light: B1 light
notes: IgG4SP (S228P in the hinge, already in the heavy chain entry); also called B156SP; P62304
B3: A61 (antibody, human IgG4, kappa)
heavy: not shown
light: DIVMTQSPLSLPVTLGQPASISCRSSQSLVKSDGNTYLSWFQQRPGQSPRRLIYKVSNRDSGVPDRFSGSGSGTDFTLKISRVEAEDVGVYYCMQGTHWPPTFGPGTKVDIKRTVAAPSVFIFPPSDEQLKSGTASVVCLLNNFYPREAKVQWKVDNALQSGNSQESVTEQDSKDSTYSLSSTLTLSKADYEKHKVYACEVTHQGLSSPVTKSFNRGEC
notes: also called P59375
B4: A61 (IgG4SP) (antibody)
heavy: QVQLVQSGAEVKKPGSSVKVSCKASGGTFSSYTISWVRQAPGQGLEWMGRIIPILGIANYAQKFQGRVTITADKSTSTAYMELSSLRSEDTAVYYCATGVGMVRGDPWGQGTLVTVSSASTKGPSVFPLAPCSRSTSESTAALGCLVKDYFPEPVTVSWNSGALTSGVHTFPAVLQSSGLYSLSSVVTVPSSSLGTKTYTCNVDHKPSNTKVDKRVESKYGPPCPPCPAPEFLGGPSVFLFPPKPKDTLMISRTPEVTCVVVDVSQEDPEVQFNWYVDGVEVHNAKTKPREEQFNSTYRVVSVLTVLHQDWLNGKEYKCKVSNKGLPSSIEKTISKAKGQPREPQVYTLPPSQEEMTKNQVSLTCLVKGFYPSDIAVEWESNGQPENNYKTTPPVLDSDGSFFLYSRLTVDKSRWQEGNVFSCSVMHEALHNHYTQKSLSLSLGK
light: B3 light
notes: IgG4SP (S228P in the hinge, already in the heavy chain entry); also called A61SP; P62298
B5: A156 (antibody, human IgG4, kappa)
heavy: not shown
light: AIQLTQSPSSLSASVGDRVTITCRASQGISSYLAWYQQKPGKAPKLLIFAASLLQRGVPSRFSGSGFGTDFTLTISGLQPEDFATYFCQQFNTYPITFGGGTKVEIKRTVAAPSVFIFPPSDEQLKSGTASVVCLLNNFYPREAKVQWKVDNALQSGNSQESVTEQDSKDSTYSLSSTLTLSKADYEKHKVYACEVTHQGLSSPVTKSFNRGEC
notes: also called P59378
B6: A156 (IgG4SP) (antibody)
heavy: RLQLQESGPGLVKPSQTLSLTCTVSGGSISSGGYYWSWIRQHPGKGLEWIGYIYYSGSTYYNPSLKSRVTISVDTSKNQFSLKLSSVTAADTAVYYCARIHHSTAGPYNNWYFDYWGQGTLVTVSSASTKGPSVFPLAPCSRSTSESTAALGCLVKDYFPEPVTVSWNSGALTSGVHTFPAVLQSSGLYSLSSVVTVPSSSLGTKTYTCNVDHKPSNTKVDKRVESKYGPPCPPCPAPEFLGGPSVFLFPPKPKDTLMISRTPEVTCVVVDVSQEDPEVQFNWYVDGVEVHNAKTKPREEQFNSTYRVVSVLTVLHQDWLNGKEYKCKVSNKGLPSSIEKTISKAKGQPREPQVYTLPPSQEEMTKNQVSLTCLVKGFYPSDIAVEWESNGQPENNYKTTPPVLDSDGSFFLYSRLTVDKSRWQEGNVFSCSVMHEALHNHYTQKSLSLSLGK
light: B5 light
notes: IgG4SP (S228P in the hinge, already in the heavy chain entry); also called A156SP; P62300
B7: B90 (antibody, human IgG4, kappa)
heavy: not shown
light: DIQMTQSPSILSASVGDRVTLTCRASQSISSWLAWYQQTPGKAPRVLIYEASTLEVGVPSRFSGSGSGTDFTLTISSLQPEDFGTYFCQQYHTDSRTFGQGTILEIKRTVAAPSVFIFPPSDEQLKSGTASVVCLLNNFYPREAKVQWKVDNALQSGNSQESVTEQDSKDSTYSLSSTLTLSKADYEKHKVYACEVTHQGLSSPVTKSFNRGEC
notes: also called P59391
B8: B90 (IgG4SP) (antibody)
heavy: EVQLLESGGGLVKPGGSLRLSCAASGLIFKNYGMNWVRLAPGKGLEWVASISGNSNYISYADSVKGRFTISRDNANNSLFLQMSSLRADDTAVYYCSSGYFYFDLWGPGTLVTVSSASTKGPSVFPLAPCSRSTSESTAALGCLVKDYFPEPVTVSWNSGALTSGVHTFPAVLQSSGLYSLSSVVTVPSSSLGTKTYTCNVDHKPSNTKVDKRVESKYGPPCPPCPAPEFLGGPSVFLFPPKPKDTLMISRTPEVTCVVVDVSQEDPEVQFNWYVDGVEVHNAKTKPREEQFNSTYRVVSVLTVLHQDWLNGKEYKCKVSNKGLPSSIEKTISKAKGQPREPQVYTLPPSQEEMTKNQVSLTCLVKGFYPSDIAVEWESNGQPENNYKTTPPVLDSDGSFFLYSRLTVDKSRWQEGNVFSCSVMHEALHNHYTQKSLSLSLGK
light: B7 light
notes: IgG4SP (S228P in the hinge, already in the heavy chain entry); also called B90SP; P62303
B9: B145 (antibody, human IgG4, kappa, V domains shown)
VH: QLQLQESGPGLVKPSQTLSLTCTVSGGSISSGGYYWSWIRQHPGKGLEWIGYIYYSGSTYYNPSLKSRVTISVDTSKNQFSLKLSSVTAADTAVYYCARGKRDGYNYYFDYWGQGTLVTVSS
VL: DIVMTQSPSSLSASVGDRVTITCQASQDISNYLNWYQQKPGKAPKLLIYDASSLESGVPSKFSGSRSGTDFTLTISSLQPEDSATYYCQQYRSYPITFGGGTKVEIKR
notes: also called P59396
B10: A22 (antibody, human IgG4, kappa, V domains shown)
VH: EVQLVESGAEVKKPGSSVKVSCKASGGTFSSYAISWVRQAPGQGLEWMGGIIPIFGTANYAQKFQGRVTITADESTSTAYMELSSLRSEDTAVYYCAFTSGSYYYFDYWGQGTLVTVSS
VL: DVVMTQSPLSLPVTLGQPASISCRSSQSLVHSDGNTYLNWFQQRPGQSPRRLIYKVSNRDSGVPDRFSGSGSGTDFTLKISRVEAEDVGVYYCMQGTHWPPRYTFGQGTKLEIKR
notes: also called P59370
B11: B44 (antibody, human IgG4, kappa, V domains shown)
VH: QVQLVQSGAEVKKPGASVKVSCKASGYTFTSYYMHWVRQAPGQGLEWMGIINPSGGSTSYAQKFQGRVTMTRDTSTSTVYMELSSLRSEDTAVYYCARGVSRRGAFDIWGQGTMVTVSS
VL: DVVMTQSPLSLPVTPGEPASISCRSSQSLLHRSGYNYLDWYVQKPGQSPQLLIYLGSIRAVGVPDRFSGSASGTDFTLRISRVEAEDVGIYYCMQALQTPPAFGGGTKVEIKR
notes: also called P59386

Target: T1, CC1H, major antigenic region of PLA2R (human, UniProt Q13018 21-367)
T1 construct: Secreted from CHO-S cells, purified on Ni column; also called CCIh
Assay: indirect ELISA, CC1h coated at 2 ug/mL, anti-human IgG Fc HRP
Experimental: (§1) 30 μL of CC1h (2 μg/mL, diluted with 1*PBS) was added to the reaction wells of the ELISA plate, and the plate was sealed and incubated at 4° C. overnight. The plate was washed with PBST for 3 times, and the liquid in the wells was discarded. 5% PBSM was added to block the ELISA plate at room temperature for 2 hours. The plate was washed with PBST for 3 times by adding 30 μL of Abs (diluted with 1*PBS) to each well of the ELISA plate, and the plate was incubated at room temperature for 60 min. The plate was washed with PBST for 3 times, 30 μL of anti-human IgG Fc HRP (diluted with 1% PBSM at a ratio of 1:8000) was added to each well, and incubated at room temperature for 60 min. TMB was added and the reaction was stopped with 2M blocking solution and the OD value was detected at 450 nm. Recombinant Ipilimumab (Sanyou Biopharmaceuticals Co., Ltd.) was used as a negative control. The test results were illustrated in Table 2 as well as FIG. 4 and FIG. 5.

| Binder | EC50 [ng/mL] |
| --- | --- |
| B1 | 10.5 |
| B2 | 8.12 |
| B3 | 4.6 |
| B4 | 10.3 |
| B5 | 6.9 |
| B6 | 14.7 |
| B7 | 2.96 |
| B8 | 19.5 |

Target: T2, CC1H-Biotin (human, UniProt Q13018 21-367, biotin by EZ-Link Sulfo-NHS-LC-Biotin, 1.80 mol Biotin/mol protein; sites not given)
T2 construct: also called biotin-labeled CC1H
Assay: BLI (Octet N1), CC1H-Biotin on SA sensor, antibody 76.6-8.5 nM
Experimental: Sartorius Octet® N1 molecular interaction instrument was used, the SA sensor (Sartorius, Octet® Streptavidin (SA) Biosensor, 18-5019) was selected.
The sensor was immersed in a PBSTB buffer (0.02% Tween-20 and 0.1% BSA were added in the PBS buffer) to be pre-wetted for 10 min or longer, and loaded onto the molecular interaction instrument.
The association constant (Ka), dissociation constant (Kd), and affinity constant (KD) were calculated and illustrated in Table 5 for details.

| Binder | Kd [pM] | koff [s⁻¹] | kon [M⁻¹ s⁻¹] |
| --- | --- | --- | --- |
| B1 | 242 | 0.000125 | 516000 |
| B2 | < 1 | < 1e-07 | 654000 |
| B3 | 17.8 | 1.89e-05 | 1.06e+06 |
| B4 | 126 | 8.17e-05 | 648000 |
| B5 | 158 | 0.000102 | 644000 |
| B6 | 456 | 0.000169 | 371000 |
| B7 | 841 | 0.000512 | 608000 |
| B8 | 6590 | 0.000639 | 97000 |

Target: T1, CC1H, major antigenic region of PLA2R
Assay: indirect ELISA, CC1h coated at 2 µg/mL, anti-human IgG Fc HRP, ΔOD450
Experimental: The human anti-human PLA2R antibody after phage screening and expression in Example 2 was measured in terms of the ability of binding to CC1h using the indirect ELISA method.
as §1

| Binder | binding result |
| --- | --- |
| B9 | no binding |
| B10 | no binding |
| B11 | no binding |
